T1: human type III collagen (Millipore Sigma) (human, UniProt P02461 154-1221)
T1 construct: treated as one molecule; also called collagen type III; collagen III
T1 sequence (looked up): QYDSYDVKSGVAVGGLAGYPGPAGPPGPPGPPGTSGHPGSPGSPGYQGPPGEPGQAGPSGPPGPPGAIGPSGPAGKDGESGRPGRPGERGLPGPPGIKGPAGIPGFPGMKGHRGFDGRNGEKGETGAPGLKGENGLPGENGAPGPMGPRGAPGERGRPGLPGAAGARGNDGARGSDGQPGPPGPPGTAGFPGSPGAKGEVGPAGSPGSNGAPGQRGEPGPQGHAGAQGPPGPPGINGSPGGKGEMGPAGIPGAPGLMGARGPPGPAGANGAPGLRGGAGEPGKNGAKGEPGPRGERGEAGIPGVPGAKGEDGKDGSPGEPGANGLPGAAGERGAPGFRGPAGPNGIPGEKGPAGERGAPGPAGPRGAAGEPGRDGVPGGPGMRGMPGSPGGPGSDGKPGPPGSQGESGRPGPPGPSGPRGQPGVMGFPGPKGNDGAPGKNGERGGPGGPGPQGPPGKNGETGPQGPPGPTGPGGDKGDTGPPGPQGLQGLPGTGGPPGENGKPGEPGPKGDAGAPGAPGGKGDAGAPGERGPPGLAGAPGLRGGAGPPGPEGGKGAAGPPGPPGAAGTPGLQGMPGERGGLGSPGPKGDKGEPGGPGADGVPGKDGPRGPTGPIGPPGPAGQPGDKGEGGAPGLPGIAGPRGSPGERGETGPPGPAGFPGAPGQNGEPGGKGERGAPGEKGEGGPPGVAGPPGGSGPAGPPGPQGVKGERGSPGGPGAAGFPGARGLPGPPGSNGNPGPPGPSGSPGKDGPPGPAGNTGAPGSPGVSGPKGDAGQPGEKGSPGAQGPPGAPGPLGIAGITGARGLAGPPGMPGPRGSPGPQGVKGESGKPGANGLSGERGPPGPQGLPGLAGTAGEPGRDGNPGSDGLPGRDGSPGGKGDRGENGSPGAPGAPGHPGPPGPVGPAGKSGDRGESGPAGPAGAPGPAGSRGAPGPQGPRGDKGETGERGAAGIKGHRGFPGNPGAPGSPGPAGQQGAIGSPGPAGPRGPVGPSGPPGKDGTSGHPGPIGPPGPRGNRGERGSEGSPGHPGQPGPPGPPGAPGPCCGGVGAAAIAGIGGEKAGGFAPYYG

T2: recombinant mouse FcRn (Acro Biosystems) (mouse, UniProt Q61559 22-297; P01887 21-119)
T2 construct: also called neonatal Fc receptor; murine FcRn recombinant protein
T2 sequence (looked up) 1: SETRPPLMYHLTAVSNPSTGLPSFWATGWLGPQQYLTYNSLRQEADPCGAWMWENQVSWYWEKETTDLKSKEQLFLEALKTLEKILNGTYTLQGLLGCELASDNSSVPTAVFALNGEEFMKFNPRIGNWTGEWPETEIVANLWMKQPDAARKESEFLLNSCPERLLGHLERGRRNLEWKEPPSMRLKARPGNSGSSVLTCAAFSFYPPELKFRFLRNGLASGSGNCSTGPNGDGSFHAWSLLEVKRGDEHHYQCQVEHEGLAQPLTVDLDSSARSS
T2 sequence (looked up) 2: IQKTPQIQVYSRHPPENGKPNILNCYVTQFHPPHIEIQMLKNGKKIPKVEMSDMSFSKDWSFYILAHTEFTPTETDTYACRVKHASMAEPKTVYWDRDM

B1: Human VWF A3 domain (CBD), mouse serum albumin and mouse IL-10 fusion protein (other)
chain: CSQPLDVVLLLDGSSSLPESSFDKMKSFAKAFISKANIGPHLTQVSVIQYGSINTIDVPWNVVQEKAHLQSLVDLMQQEGGPSQIGDALAFAVRYVTSQIHGARPGASKAVVIIIMDTSLDPVDTAADAARSNRVAVFPVGVGDRYDEAQLRILAGPGASSNVVKLQQVEDLSTMATLGNSFFHKLCSGFSGVGGGSGGGSEAHKSEIAHRYNDLGEQHFKGLVLIAFSQYLQKCSYDEHAKLVQEVTDFAKTCVADESAANCDKSLHTLFGDKLCAIPNLRENYGELADCCTKQEPERNECFLQHKDDNPSLPPFERPEAEAMCTSFKENPTTFMGHYLHEVARRHPYFYAPELLYYAEQYNEILTQCCAEADKESCLTPKLDGVKEKALVSSVRQRMKCSSMQKFGERAFKAWAVARLSQTFPNADFAEITKLATDLTKVNKECCHGDLLECADDRAELAKYMCENQATISSKLQTCCDKPLLKKAHCLSEVEHDTMPADLPAIAADFVEDQEVCKNYAEAKDVFLGTFLYEYSRRHPDYSVSLLLRLAKKYEATLEKCCAEANPPACYGTVLAEFQPLVEEPKNLVKTNCDLYEKLGEYGFQNAILVRYTQKAPQVSTPTLVEAARNLGRVGTKCCTLPEDQRLPCVEDYLSAILNRVCLLHEKTPVSEHVTKCCSGSLVERRPCFSALTVDETYVPKEFKAETFTFHSDICTLPEKEKQIKKQTALAELVKHKPKATAEQLKTVMDDFAQFLDTCCKAADKDTCFSTEGPNLVTRCKDALAGGGSGGGSSRGQYSREDNNCTHFPVGQSHMLLELRTAFSQVKTFFQTKDQLDNILLTDSLMQDFKGYLGCQALSEMIQFYLVEVMPQAEKHGPEIKEHLNSLGEKLKTLRMRLRRCHRFLPCENKSKAVEQVKSDFNKLQDQGVYKAMNEFDIFINCIEAYMMIKMKSHHHHHH
notes: also called CBD-SA-IL-10; CBD-SA-fused IL-10

Legend:
[1] = target: recombinant mouse IL-4Ra protein (R&D Systems) (mouse) (UniProt P16382); assay: ELISA on plates coated with recombinant mouse IL-4Ra (10 µg/mL), 0-740 nM A3-IL4, detected with an antibody against mouse IL-4, A450; Kd from the fitted curve [B]
recombinant mouse IL-4Ra protein (R&D Systems) (mouse), sequence (P16382 26-233 limits assumed): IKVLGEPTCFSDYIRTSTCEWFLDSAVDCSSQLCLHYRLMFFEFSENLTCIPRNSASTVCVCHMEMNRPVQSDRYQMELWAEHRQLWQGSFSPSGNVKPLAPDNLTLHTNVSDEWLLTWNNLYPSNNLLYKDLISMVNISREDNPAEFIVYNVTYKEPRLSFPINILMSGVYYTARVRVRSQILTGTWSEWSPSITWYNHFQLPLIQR

[2] = target: human type III collagen (Millipore Sigma) (human) (UniProt P02461); assay: ELISA on plates coated with collagen III, 0-740 nM A3-IL4
[3] = target: T3, human type I collagen (Millipore Sigma) (human, UniProt P02452 162-1218; P08123 80-1119); assay: SPR (Biacore X100), human type I collagen immobilised by amine coupling, CBD-SA-IL-10 flowed, 1:1 Langmuir fit
T3 construct: treated as one molecule; also called collagen type I
T3 sequence (P02452 162-1218, chain 1 of 2): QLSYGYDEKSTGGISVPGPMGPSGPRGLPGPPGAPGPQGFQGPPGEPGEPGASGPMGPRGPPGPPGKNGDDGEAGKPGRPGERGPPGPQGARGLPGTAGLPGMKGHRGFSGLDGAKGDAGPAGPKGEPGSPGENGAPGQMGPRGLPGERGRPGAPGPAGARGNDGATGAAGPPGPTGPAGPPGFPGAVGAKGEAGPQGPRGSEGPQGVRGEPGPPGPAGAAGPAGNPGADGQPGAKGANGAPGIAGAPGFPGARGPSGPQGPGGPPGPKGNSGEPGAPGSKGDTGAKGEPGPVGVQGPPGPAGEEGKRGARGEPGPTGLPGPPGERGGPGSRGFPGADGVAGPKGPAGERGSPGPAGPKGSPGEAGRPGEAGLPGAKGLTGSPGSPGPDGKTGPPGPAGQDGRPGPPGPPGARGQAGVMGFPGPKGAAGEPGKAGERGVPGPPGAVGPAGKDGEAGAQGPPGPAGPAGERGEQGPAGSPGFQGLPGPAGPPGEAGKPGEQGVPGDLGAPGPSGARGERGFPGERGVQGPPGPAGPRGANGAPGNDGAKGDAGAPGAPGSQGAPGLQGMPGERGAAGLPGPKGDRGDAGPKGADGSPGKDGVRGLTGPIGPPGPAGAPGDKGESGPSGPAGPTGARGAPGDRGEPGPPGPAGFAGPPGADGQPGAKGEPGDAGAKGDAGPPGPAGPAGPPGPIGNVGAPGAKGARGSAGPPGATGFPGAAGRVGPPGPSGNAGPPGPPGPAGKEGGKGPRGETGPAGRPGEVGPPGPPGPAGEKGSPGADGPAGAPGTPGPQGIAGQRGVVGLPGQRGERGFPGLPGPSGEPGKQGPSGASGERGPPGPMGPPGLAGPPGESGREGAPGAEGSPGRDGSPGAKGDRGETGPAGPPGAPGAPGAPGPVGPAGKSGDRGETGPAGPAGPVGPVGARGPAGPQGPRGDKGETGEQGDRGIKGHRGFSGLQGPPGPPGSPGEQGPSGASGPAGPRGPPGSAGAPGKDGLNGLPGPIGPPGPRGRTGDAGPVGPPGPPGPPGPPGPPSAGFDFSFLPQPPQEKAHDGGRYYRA
T3 sequence (P08123 80-1119, chain 2 of 2): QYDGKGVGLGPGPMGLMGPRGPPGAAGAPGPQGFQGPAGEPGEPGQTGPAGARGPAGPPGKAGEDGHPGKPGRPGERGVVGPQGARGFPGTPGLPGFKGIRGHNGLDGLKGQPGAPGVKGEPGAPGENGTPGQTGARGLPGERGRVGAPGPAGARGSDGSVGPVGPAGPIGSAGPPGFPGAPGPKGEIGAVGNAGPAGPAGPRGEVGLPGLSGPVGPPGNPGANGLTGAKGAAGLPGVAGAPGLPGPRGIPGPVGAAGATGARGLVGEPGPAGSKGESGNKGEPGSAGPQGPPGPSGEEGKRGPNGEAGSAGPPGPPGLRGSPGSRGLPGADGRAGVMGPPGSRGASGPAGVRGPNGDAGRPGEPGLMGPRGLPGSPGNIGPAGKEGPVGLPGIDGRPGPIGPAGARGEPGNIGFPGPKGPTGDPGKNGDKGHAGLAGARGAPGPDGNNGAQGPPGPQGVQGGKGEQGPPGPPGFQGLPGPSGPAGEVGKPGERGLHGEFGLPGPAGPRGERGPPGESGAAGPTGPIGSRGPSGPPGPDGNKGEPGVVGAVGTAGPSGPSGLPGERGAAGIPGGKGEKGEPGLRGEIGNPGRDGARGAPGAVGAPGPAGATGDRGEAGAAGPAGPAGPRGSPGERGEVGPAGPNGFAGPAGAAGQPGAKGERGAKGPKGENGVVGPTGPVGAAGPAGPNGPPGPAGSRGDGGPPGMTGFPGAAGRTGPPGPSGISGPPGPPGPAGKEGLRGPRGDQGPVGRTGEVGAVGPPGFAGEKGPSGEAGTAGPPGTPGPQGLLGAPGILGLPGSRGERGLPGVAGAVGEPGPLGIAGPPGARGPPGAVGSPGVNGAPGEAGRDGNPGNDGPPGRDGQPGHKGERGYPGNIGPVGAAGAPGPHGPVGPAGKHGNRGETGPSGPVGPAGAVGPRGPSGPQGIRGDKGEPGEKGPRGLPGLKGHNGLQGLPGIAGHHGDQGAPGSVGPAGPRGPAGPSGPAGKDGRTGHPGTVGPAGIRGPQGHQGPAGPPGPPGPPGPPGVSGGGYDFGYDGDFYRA
Experimental: (§1) SPR measurements were carried out with Biacore X100 instrument. In collagen binding experiments, recombinant human type I or type III collagen (Millipore Sigma) were immobilized on a CMS sensor chip by standard amine coupling method (˜1500 resonance units (RUs)) and blocked with ethanolamine. […] In FcRn binding experiments, recombinant mouse FcRn (Acro Biosystems) was immobilized via amine coupling on a C1 chip (GE Healthcare) for ˜200 RU according to the manufacturer's instructions. […] The sensor chip was regenerated with PBS, pH 7.4 for every cycle.

[4] = target: T1, human type III collagen (Millipore …); assay: SPR (Biacore X100), human type III collagen immobilised by amine coupling, CBD-SA-IL-10 flowed, 1:1 Langmuir fit
Experimental: as §1

[5] = target: T2, recombinant mouse FcRn (Acro Biosystems); assay: SPR (Biacore X100), mouse FcRn immobilised on a C1 chip, CBD-SA-IL-10 flowed at pH 5.8, 1:1 Langmuir fit
Experimental: as §1

Molecule | Kd [1] [nM] | Kd [2] [nM] | Kd [3] [nM] | koff [3] [s⁻¹] | Kd [4] [nM] | koff [4] [s⁻¹] | Kd [5] [nM] | koff [5] [s⁻¹] | kon [5] [M⁻¹ s⁻¹]
vWF A3 domain-fused IL-4 (human vWF A3 domain and mouse IL-4 fusion protein) | 100 | 28.6 | – | – | – | – | – | – | –
B1 | – | – | 12.4 | 0.0034 | 8 | 0.0026 | 1600 | 0.0084 | 5210

Source: patent US20220118089A1 (UNIVERSITY OF CHICAGO, published 2022)
